Measured values as given in patent publication US7871610B2, “Antibodies to Tie1 ectodomain” (Dyax Corp., priority 2003, dated 2011).
“Also recorded” adds a separate entry of the source.

Experiments:
[1] = test system: SW-480 (colorectal cancer) cells; test: SW-480 colorectal cancer xenograft in nu/nu mice; format: in vivo, mouse; details: average per group
Description: Mice (nu/nu) were implanted subcutaneously with 5×10^6 SW-480 (colorectal cancer) cells. After 12 days, when tumors reached approximately 100-200 mg, the mice were separated into 5 groups and treated with the following agents (or left untreated): • 1—Untreated • 2—Vehicle (PBS) • 3—Cisplatin (4 mg/kg/, IV, q2d×5 times) • 4—A2-SV (negative control antibody @ 10 mg/kg, IP, q2d×14 times) • 5—DX-2220 (anti-Tie-1 antibody @ 10 mg/kg, IP, q2d×14 times)
Throughout the study, the length (L) and width (W) of any tumors that developed were measured in millimeters using calibrated vernier calipers, where L is the longer of the two dimensions. When applicable, tumor weight (M) in milligrams was calculated by using the formula associated with a prolate ellipsoid: M=(L×W^2)/2. […] A2-SV is an isotype matched (IgG1) negative control antibody that binds strepavidin.

[2] = test system: bFGF-induced angiogenesis; test: […] plug assay, bFGF-induced angiogenesis in NMRI nu/nu mice; format: in vivo, mouse; details: first assay, day 7; bFGF 80 ng/ml; antibody 10 μg/ml in plug; E3 = germlined variant, IgG4
Description: The germlined variant of the E3 IgG antibody was evaluated in an in vivo assay for angiogenesis induced by bFGF in […]™ plugs. Growth factor reduced […]™ (BD Biosciences, catalog # 354230) was supplemented with 80 ng/ml of bFGF (R&D Systems, catalog #234-FSE). The A2-SV or an IgG4 E3 antibody (10 μg/ml) or PBS was injected subcutaneously into the abdominal area of NMRI nu/nu mice (150 μl of Matrigel/plug).
In the first assay, two mice were injected with […]™ supplemented with bFGF and soluble VEGFR-1 (10 μg/ml) as a positive control for an angiogenic inhibitor. At day 7 post-implantation mice were anesthetized and perfused through heart with 4% paraformaldehyde (PFA) in phosphate buffered saline (PBS). […]™ plugs and a piece of liver were removed and embedded in paraffin. Sections were cut and stained with hematoxylin and eosin (H&E).
In a second assay, mice were treated as described above, and then anesthetized eight days post-implantation and injected with fluorescein-conjugated tomato (lycopersicon esculentum) lectin (100 μg in 200 μl of PBS; Vector, catalog #FL-1171) into the tail vein. After five min circulation the animals were perfused through the heart with 10 ml of PBS followed by 10 ml of 4% PFA in PBS. […]™ plugs and pieces of kidney and liver were removed and frozen in OCT (Tissue-Tek). Nuclei were visualized on sections by using […]® mounting medium containing DAPI (Vector) and analyzed under fluorescence microscopy.

[3] = biological target: T1, Tie1-EpoR chimeric receptor (UniProt P14753+P35590); test: Ba/F3 bioassay (Tie1/EpoR chimeric BaF3 cell assay), MTT viability; format: cell-based, human; details: 100 ng/ml E3 IgG together with 100 (1:1) or 500 (1:5) ng/ml of the other antibody
T1 construct: the PCR amplified extracellular part of human Tie1 (bp 37-2316 of X60975); expressed in transfected cells
T1 sequence (P35590+P14753 with tags, fused parts or gaps): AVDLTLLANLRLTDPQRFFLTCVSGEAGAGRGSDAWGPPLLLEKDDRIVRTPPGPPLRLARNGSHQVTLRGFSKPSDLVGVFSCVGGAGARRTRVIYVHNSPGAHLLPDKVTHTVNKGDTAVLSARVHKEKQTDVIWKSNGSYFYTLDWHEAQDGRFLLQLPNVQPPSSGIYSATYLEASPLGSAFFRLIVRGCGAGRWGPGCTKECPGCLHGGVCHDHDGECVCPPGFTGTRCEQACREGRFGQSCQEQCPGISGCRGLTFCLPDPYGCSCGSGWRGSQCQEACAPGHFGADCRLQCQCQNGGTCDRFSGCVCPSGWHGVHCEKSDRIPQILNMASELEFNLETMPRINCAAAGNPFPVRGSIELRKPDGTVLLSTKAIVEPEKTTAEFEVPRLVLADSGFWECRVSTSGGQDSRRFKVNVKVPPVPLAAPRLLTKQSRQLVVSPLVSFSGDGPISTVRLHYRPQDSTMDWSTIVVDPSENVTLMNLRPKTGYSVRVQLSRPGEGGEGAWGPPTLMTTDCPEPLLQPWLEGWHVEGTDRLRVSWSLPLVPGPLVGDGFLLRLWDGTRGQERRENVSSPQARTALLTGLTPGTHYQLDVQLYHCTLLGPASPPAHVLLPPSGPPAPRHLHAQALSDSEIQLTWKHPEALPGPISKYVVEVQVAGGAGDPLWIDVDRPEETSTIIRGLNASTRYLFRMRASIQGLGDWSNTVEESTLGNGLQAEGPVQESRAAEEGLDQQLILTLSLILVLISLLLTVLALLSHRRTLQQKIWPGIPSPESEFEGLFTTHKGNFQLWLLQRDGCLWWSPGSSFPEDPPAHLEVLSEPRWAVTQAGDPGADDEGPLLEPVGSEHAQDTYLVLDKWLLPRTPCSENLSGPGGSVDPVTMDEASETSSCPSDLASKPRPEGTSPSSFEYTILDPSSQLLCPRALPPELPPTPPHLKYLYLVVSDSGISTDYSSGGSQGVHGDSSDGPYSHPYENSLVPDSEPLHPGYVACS
From the text: To generate Tie1-EpoR expressing Ba/F3 cells for the bioassay, Ba/F3 pre-B cells were stably transfected with a nucleic acid that expresses chimeric receptor containing the extracellular domain of human Tie1 fused with the transmembrane and cytoplasmic domains of the mouse erythropoietin receptor. The nucleic acid used was a Tie1-EpoR chimeric cDNA in a pEF-BOS expression vector. The nucleic acid encoding the chimeric receptor was constructed by cloning the PCR amplified extracellular part of human Tie1 (bp 37-2316 of X60975) as EcoRI-BglII fragment into mEpoR-pcDNA vector. The cDNA encoding for the chimeric receptor consisting of the extracellular part of Tie1 fused with the transmembrane and intracellular domains of EpoR was subcloned into the pEF-BOS expression vector. Vector was linearized and co-transfected into Ba/F3 cells with pcDNA3.1(+) Zeo vector (Invitrogen). Stable cell pools were generated by selection with 250 μg/ml Zeocin. The expression of Tie1/EpoR fusion protein in several clones was analyzed by Western blotting with an antibody against EpoR.
To perform the assays, Ba/F3 cells expressing the Tie 1-EpoR chimera were split in 96-well microtiter plates at 50 000 cells/well in the presence of the indicated concentrations of anti-Tie1 antibodies. As controls, Zeocin resistant pools not expressing the Tie1-EpoR were used. After 48 h, the viability of the cells was determined by adding MTT (3-(4,5-dimethylthiazol-2-yl)-2,5-diphenyl tetrazolium bromide (Sigma), 0.5 mg/ml), followed by further 2 h of culture, addition of an equal volume of cell lysis solution (10% SDS, 10 mM HCl) and incubation overnight at 37° C. Absorbance was measured at 540 nm.
Although no ligand for Tie1 has been identified, we used the following efficient screening method for Tie1-binding proteins. Interleukin-3 dependent pre-B-lymphocyte (Ba/F3) cells were transfected with a construct that expresses a Tie1-EpoR fusion protein. Since Ba/F3 cells are IL-3 dependent, they die unless IL-3 is provided. However, Tie-EpoR receptor expressing Ba/F3 cells can survive and proliferate if the medium contains a Tie1-binding protein, either a natural ligand or an artificial mimetic. Cell survival can be quantitated, e.g., by colorimetric MTT-assay, which measures mitochondrial activity.

[4] = biological target: Tie1 (Homo sapiens, UniProt P35590); test: Immunohistochemistry of matched human tumor and normal tissue sections; parameters: from tissue; host or cells: fresh frozen normal and tumor tissue (e.g. lung, kidney, skin, breast); details: 10 μg/ml, fresh frozen tissue
Chain of Tie1 (P35590 22-1138): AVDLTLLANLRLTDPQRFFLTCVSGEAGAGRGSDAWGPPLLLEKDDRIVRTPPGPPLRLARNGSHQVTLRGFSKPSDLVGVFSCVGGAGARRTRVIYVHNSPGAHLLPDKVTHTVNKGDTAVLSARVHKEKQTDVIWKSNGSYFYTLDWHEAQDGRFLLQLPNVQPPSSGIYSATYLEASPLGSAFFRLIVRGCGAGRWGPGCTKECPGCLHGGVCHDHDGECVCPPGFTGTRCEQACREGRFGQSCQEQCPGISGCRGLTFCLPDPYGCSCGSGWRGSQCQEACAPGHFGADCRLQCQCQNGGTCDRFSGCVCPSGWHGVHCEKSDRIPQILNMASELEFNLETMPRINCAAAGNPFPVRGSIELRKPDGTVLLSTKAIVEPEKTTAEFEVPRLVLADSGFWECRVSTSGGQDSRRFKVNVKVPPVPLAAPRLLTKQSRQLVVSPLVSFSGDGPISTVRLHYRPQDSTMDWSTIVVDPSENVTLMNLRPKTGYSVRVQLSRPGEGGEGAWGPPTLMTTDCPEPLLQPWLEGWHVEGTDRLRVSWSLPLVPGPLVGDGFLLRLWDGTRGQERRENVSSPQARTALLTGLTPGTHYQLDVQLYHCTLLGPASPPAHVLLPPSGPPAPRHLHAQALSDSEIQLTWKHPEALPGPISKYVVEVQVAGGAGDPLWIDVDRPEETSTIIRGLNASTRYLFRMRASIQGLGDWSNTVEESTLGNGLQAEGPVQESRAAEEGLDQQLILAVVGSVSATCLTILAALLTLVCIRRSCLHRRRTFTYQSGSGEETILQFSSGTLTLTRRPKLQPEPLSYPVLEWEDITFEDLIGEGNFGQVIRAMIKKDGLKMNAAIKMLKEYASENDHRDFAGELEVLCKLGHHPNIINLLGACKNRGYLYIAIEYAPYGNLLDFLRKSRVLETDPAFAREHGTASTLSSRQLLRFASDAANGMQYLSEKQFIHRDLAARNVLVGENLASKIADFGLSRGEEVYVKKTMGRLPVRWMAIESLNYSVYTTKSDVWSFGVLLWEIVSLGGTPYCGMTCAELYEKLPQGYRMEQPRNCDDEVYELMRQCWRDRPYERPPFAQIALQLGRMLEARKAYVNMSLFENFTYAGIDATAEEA
Description: The Tie-1 antibodies were biotinylated using the EZ-link Sulfo-NHS-SS-Biotin (Pierce, Cat. 21331). For Tie-1/Fc and Tie-1-His, the reaction was performed for 2 hours on ice in 50 mM sodium carbonate buffer, pH 9.6, in the presence of a 5-fold molar excess of biotinylating agent. For the antibodies, the reaction was performed for 2 hours on ice in PBS, in the presence of a 15-fold molar excess of EZ-link Sulfo-NHS-SS-Biotin. The reaction was stopped by the addition of Tris-HCl, pH 7.5 (50 mM final concentration) followed by a 1-hour incubation on ice. Samples were then dialyzed against PBS.
Various normal and tumor tissue sections were stained with biotinylated antibodies. A mouse monoclonal anti-Tie1 antibody (7e8) (Alitalo laboratory, University of Helsinki) was used as a positive control. Sections without primary antibody served as negative control. All samples were fresh frozen tissues and staining was performed with the TSA-kit (Perkin-Elmer Life Sciences). After acetone fixation (10-20 min, −20° C.) the slides were treated with 0.73% H2O2 for 10 min to reduce endogenous peroxidase activity followed by blocking for 30 min with TNB buffer. Sections ([…] thick) were incubated with primary antibodies (10 μg/ml) overnight at 4° C. Sections with the mouse monoclonal anti-tie1 antibody (7e8) were treated with biotinylated anti-mouse antibodies (VectaStain) before the addition of streptavidin-HRP. Signal was amplified by using a TSA kit and the visualized by AEC (235 ml NaAc, 15 ml AEC (stock solution: 1600 mg 3-amino-9-ethyl-carbazole and 480 ml N-dimethylformamide), 250 μl H2O2).

N.N.[Cl][Pt][Cl] [cisplatin, reference compound]
Tumor Weight ([1]; 5 days after cell injection (before treatment start at day 12)): 48 mg | Tumor Weight ([1]; 9 days after cell injection (before treatment start at day 12)): 69 mg | Tumor Weight ([1]; 12 days after cell injection (treatment start)): 137 mg | Tumor Weight ([1]; 15 days after cell injection): 185 mg | Tumor Weight ([1]; 19 days after cell injection): 207 mg | Tumor Weight ([1]; 22 days after cell injection): 235 mg | Tumor Weight ([1]; 26 days after cell injection): 310 mg | Tumor Weight ([1]; 28 days after cell injection): 363 mg

B1: soluble VEGFR1: soluble VEGFR-1 (10 μg/ml), positive control for an angiogenic inhibitor (protein, UniProt P17948 27-758, looked up)
extracellular domain: SKLKDPELSLKGTQHIMQAGQTLHLQCRGEAAHKWSLPEMVSKESERLSITKSACGRNGKQFCSTLTLNTAQANHTGFYSCKYLAVPTSKKKETESAIYIFISDTGRPFVEMYSEIPEIIHMTEGRELVIPCRVTSPNITVTLKKFPLDTLIPDGKRIIWDSRKGFIISNATYKEIGLLTCEATVNGHLYKTNYLTHRQTNTIIDVQISTPRPVKLLRGHTLVLNCTATTPLNTRVQMTWSYPDEKNKRASVRRRIDQSNSHANIFYSVLTIDKMQNKDKGLYTCRVRSGPSFKSVNTSVHIYDKAFITVKHRKQQVLETVAGKRSYRLSMKVKAFPSPEVVWLKDGLPATEKSARYLTRGYSLIIKDVTEEDAGNYTILLSIKQSNVFKNLTATLIVNVKPQIYEKAVSSFPDPALYPLGSRQILTCTAYGIPQPTIKWFWHPCNHNHSEARCDFCSNNEESFILDADSNMGNRIESITQRMAIIEGKNKMASTLVVADSRISGIYICIASNKVGTVGRNISFYITDVPNGFHVNLEKMPTEGEDLKLSCTVNKFLYRDVTWILLRTVNNRTMHYSISKQKMAITKEHSITLNLTIMNVSLQDSGTYACRARNVYTGEEILQKKEITIRDQEAPYLLRNLSDHTVAISSSTTLDCHANGVPEPQITWFKNNHKIQQEPGIILGPGSSTLFIERVTEEDEGVYHCKATNQKGSVESSAYLTVQGTSDKSNLE
modifications: extracellular domain
vessel-like structures in MATRIGEL plugs (H&E staining) [2]: neither modification of the matrix nor organization of the cells

B2: D11: anti-Tie1 antibody; VH SEQ ID NO:84, VL SEQ ID NO:86 (antibody, V domains shown)
VH: EVQLLESGGGLVQPGGSLRLSCAASGFTFSGYAMWWVRQAPGKGLEWVSSISPSGGATAYADSVKGRFTISRDNSKNTLYLQMNSLRAEDTAVYYCARDAGSYYWGWFDPWGQGTLVTVSSASTKGPSVFP
VL: HSAQDIQMTQSPATLSLSPGERATLSCRASQSISSYLAWYQQKPGQPPRLLIYDASSRVTGIPARFSGSGFGTDFTLTISSLEPEDFAVYYCLQRSSWPRTFGQGTKLEIK
modifications: Synthetically generated peptide
effect on the survival effect of E3 IgG in Tie1-EpoR Ba/F3 assay [3]: completely blocked the viability; also recorded: blocked completely the survival effect of E3 IgG; also recorded: counteract the agonistic activity of E3 | staining of breast carcinoma [4]: stained also other structures in addition to vessels | staining of kidney [4]: stained kidney tubules in addition to the vessels | staining of lung carcinoma [4]: stained structures other than vessels | staining of melanoma tissue [4]: also stained other surrounding structures | staining of normal lung (large veins) [4]: faint staining | staining of normal skin [4]: stained blood vessels very faintly | staining of veins and capillaries of mammary tissue (breast) [4]: stained those structures rather faintly
